The term Kd denotes the equilibrium constant for the complex coming apart. One may read the koff as the rate constant with which the complex falls apart. A word on the kon: it is a measure of how fast the partners come together.

Test [1] addresses T1, C-terminal truncated RSV F protein (secreted, from recombinant baculovirus) (respiratory syncytial virus, UniProt P03420 26-524).
T1 construct: also called immobilized F protein
As to the kind of experiment: SPR (BIAcore), F protein amine-coupled, Kd = kd/ka. (In general: Surface plasmon resonance follows binding to a sensor surface in real time, without labels.)

In test [2] the target is T1, C-terminal truncated RSV F protein …. The test can be described thus: SPR (BIAcore), F protein amine-coupled, Mab injected at 25-300 nM.
Test [3] deals with T2, RSV F protein (native, from RSV virus or RSV infected HEP2 cell lysate) (respiratory syncytial virus, UniProt P03420 26-574).
T2 construct: In the ELISA the antigen was whatever the Mu1331 anti-F antibody captured from the infected cell lysate; also called RSV F antigen; RSV F glycoprotein
As to the kind of experiment: capture ELISA: RSV infected HEP2 cell lysate captured on Mu1331 antibody; double reciprocal plot of OD vs antibody concentration. For orientation: In an ELISA, binding on a coated surface is turned into a signal by an enzyme label.

T1 sequence (P03420 26-524): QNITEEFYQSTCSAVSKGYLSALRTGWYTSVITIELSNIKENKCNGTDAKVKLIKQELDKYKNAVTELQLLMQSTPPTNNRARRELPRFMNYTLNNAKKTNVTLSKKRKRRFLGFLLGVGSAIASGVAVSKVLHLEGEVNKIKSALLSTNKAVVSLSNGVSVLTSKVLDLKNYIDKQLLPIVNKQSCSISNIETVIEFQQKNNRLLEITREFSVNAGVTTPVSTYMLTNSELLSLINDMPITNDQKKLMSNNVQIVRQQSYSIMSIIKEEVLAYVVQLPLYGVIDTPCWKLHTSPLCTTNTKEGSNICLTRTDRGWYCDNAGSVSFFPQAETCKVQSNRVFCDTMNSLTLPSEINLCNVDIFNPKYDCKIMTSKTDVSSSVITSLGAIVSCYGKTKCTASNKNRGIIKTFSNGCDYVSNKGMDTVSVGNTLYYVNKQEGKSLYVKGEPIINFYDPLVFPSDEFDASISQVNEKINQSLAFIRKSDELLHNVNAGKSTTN
T2 sequence (P03420 26-574): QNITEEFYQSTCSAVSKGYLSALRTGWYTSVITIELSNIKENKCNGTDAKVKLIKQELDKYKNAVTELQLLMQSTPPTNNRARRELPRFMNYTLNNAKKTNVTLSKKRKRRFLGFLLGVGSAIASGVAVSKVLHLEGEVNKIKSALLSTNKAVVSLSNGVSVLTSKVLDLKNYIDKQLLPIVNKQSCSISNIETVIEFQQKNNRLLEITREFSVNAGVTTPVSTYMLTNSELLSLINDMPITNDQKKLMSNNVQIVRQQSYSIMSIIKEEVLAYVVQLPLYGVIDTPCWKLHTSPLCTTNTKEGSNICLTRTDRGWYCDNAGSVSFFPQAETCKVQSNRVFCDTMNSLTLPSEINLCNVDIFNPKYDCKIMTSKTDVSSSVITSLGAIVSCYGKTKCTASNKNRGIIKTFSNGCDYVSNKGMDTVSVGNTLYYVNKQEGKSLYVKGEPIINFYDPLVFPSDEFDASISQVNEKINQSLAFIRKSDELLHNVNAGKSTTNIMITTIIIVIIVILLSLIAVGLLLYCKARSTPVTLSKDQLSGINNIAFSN

B1: murine monoclonal antibody MAb 1308F (antibody, V domains shown)
VH: EVQKQQSGAELVRPGALVKLSCKASGFNIKDYYIYWVKQRPEQGLEWIGWIDPENGNTVFDPLFQGKASITSDTSSNTAYLQLSSLTSEDTAVYYCAYYGTSSFDFWGQGTTLTVSS
VL: DIKMTQSPSSMYVSLGERVTITCKASQDINRYLNWFQQKPGKSPKTLIHRANRLVDGVPSRFSGSGSGQEYSLTISSLEFEDMGIYYCLQFHEFPYTFGGGTKLEIL
notes: also called M1308F; Mu1308F
Regarding B1, the Kd in test [1] was determined as 1.1 nM. Moreover, in test [2], the koff was found to be 3.8e-05 s⁻¹, the kon stood at 35000 M⁻¹ s⁻¹ and the “t1/2 (dissociation half-life)” value stood at 5.1 h.

B2: humanized 1129 (CDR-grafted anti-RSV F antibody, human IgG1/kappa) (antibody, V domains shown)
VH: QVTLRESGPALVKPTQTLTLTCTFSGFSLSTSGMSVGWIRQPPGKALEWLADIWWDDKKDYNPSLKSRLTISKDTSKNQVVLKVTNMDPADTATYYCARSMITNWYFDVWGAGTTVTVSS
VL: DIQMTQSPSTLSASVGDRVTITCKCQLSVGYMHWYQQKPGKAPKLWIYDTSKLASGVPSRFSGSGSGTEFTLTISSLQPDDFATYYCFQGSGYPFTFGGGTKLEIK
notes: also called H1129; Hu1129
B2: binding in test [3] was put at a Kd of 0.7 nM. In test [1], the Kd was 1.4 nM. Moreover, in test [2], the koff was 6.9e-05 s⁻¹, the kon was 49000 M⁻¹ s⁻¹ and the “t1/2 (dissociation half-life)” value came out at 2.8 h.

B3: humanized 1308F (CDR-grafted anti-RSV F antibody, human IgG1/kappa) (antibody, V domains shown)
VH: QVQLVQSGAEVKKPGASVKVSCKASGFNIKDYYIYWVRQAPGQGLEWIGWIDPENGNTVFDPKFNGRVTMTRDTSTSTVYMELSSLRSEDTAVYYCAYYGTSSFDFWGQGTTLTVSS
VL: DIQMTQSPSTLSASVGDRVTITCKASQDINRYLNWYQQKPGKAPKLLIYRANRLVDGVPSRFSGSGSGTEFTLTISSLQPDDFATYYCLQFHEFPYTFGGGTKLEIL
notes: also called H1308F; Hu1308F
Consider B3, for which the Kd in test [1] was 2.5 nM. Also, in test [2], the off-rate (koff) was determined as 5.5e-05 s⁻¹, the association rate constant (kon) amounted to 22000 M⁻¹ s⁻¹ and the “t1/2 (dissociation half-life)” value was 3.5 h.

B4: murine monoclonal antibody MAb 1129 (antibody, V domains shown)
VH: QVELQESGPGILQPSQTLSLTCSFSGFSLSTSGMSVGWIRQPSGEGLEWLADIWWDDKKDYNPSLKSRKTISKDTSSNQVFLKITGVDTADTATYYCARSMITNWYFDVWGAGTTVTVSS
VL: DIQLTQSPAIMSASPGEKVTMTCSASSSVGYMHWYQQKSSTSPKLWIYDTSKLASGVPGRFSGSGSGNSYSLTISSIQAEDVATYYCFQGSGYPFTFGGGTKLEIK
notes: also called M1129
On to B4, for which, in test [1], the Kd came to 11.4 nM. In addition, in test [2], the dissociation rate constant (koff) worked out at 0.0004 s⁻¹, the kon was found to be 35000 M⁻¹ s⁻¹ and the “t1/2 (dissociation half-life)” value was 0.48 h.

These data come from patent publication US20090104205A1 (AstraZeneca / MedImmune, published 2009).
